Experimental data published in article PMC10397247.
Values belong to the binder of their own block, whether it stands above or below them.

Tests used:
Experiment in all cases: two-hybrid library CCmax;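 also: natural log of median RNA to DNA barcode read ratio; higher means stronger binding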
Core_NIIN-es_KEEK = biological target: T1, Core_NIIN-es_KEEK; settings: mean of both orientations
T1 chain: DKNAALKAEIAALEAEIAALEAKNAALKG

Core_NNII-es_KKKE = biological target: T2, Core_NNII-es_KKKE; settings: mean of both orientations
T2 chain: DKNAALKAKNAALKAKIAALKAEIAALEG

Core_IINN-es_KKEK = biological target: T3, Core_IINN-es_KKEK; settings: mean of both orientations
T3 chain: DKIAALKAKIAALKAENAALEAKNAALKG

Core_NNNN-es_KEKK = biological target: T4, Core_NNNN-es_KEKK; settings: mean of both orientations
T4 chain: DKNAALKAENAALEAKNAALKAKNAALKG

4H4033-AA = biological target: T5, 4H4033-AA; settings: mean of both orientations
T5 chain: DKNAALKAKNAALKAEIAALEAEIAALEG

4H2935-AA = biological target: T6, 4H2935-AA; settings: mean of both orientations
T6 chain: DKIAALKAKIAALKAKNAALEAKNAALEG

4H3664-AA = biological target: T7, 4H3664-AA; settings: mean of both orientations
T7 chain: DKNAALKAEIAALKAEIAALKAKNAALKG

4H2726-AA = biological target: T8, 4H2726-AA; settings: mean of both orientations
T8 chain: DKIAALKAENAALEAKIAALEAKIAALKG

4H662-AA = biological target: T9, 4H662-AA; settings: mean of both orientations
T9 chain: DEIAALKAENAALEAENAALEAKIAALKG

4H3625-AA = biological target: T10, 4H3625-AA; settings: mean of both orientations
T10 chain: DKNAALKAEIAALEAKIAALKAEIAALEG

4H481-AA = biological target: T11, 4H481-AA; settings: mean of both orientations
T11 chain: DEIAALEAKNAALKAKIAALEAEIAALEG

4H2608-AA = biological target: T12, 4H2608-AA
T12 chain: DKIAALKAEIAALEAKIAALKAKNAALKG

4H3605-AA = biological target: T13, 4H3605-AA; settings: mean of both orientations
T13 chain: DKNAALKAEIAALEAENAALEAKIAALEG

4H55-AA = biological target: T14, 4H55-AA; settings: mean of both orientations
T14 chain: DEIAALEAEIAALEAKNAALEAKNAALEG

4H3922-AA = biological target: T15, 4H3922-AA; settings: mean of both orientations
T15 chain: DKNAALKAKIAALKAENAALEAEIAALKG

4H327-AA = biological target: T16, 4H327-AA; settings: mean of both orientations
T16 chain: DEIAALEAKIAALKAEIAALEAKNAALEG

Core_IIIN-es_EKEE = biological target: T17, Core_IIIN-es_EKEE; settings: mean of both orientations
T17 chain: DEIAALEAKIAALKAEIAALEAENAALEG

4H2614-AA = biological target: T18, 4H2614-AA; settings: mean of both orientations
T18 chain: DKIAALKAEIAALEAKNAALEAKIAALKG

4H369-AA = biological target: T19, 4H369-AA
T19 chain: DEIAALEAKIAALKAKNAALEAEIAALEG

Core_NINN-es_KEEK = biological target: T20, Core_NINN-es_KEEK; settings: mean of both orientations
T20 chain: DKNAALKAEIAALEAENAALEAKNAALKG

Core_NNNI-es_KKKK = biological target: T21, Core_NNNI-es_KKKK; settings: mean of both orientations
T21 chain: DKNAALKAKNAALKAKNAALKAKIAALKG

interaction score (Core_NNNN-es_KEKK): 0.346
Binder: DENAALEAKNAALKAENAALEAENAALEG [Core_NNNN-es_EKEE]

interaction score (Core_NNNI-es_KKKK): 2.16
Binder: DENAALEAENAALEAENAALEAEIAALEG [Core_NNNI-es_EEEE]

Continued, binder first:

Binder: DENAALEAKIAALKAKIAALKAENAALEG [Core_NIIN-es_EKKE]
interaction score (Core_NIIN-es_KEEK): 2.22

Binder: DENAALEAENAALEAEIAALEAKIAALKG [Core_NNII-es_EEEK]
interaction score (Core_NNII-es_KKKE): 2.42

Binder: DEIAALEAEIAALEAKNAALKAENAALEG [Core_IINN-es_EEKE]
interaction score (Core_IINN-es_KKEK): 2.21

Binder: DKIAALKAEIAALEAKIAALKAKNAALKG [4H2608-AA]
interaction score (4H4033-AA): -0.845 | interaction score (4H2935-AA): -0.712 | interaction score (4H3664-AA): -0.787 | interaction score (4H2726-AA): -0.998 | interaction score (4H662-AA): -1.55 | interaction score (4H3625-AA): 1.92 | interaction score (4H481-AA): 1.33 | interaction score (4H2608-AA): -0.193 | interaction score (4H3605-AA): -0.648 | interaction score (4H55-AA): -0.255 | interaction score (4H3922-AA): -1.39 | interaction score (4H327-AA): 1.83 | interaction score (Core_IIIN-es_EKEE): 1.53 | interaction score (4H2614-AA): -0.644 | interaction score (4H369-AA): 0.124

Binder: DENAALEAKIAALKAKNAALKAENAALEG [Core_NINN-es_EKKE]
interaction score (Core_NINN-es_KEEK): 1.86
